These are literature values, as cited in publication PMC6389717.

The target in series [1] is Asp38 (UniProt position 38, DATVEDPVGSE). Description: kinetics (per the article's general statement only; no method given for this value). Particulars: presumed enzyme-substrate complex (general statement of the article); not given.
In series [2] the target is Lys39 (UniProt position 39, IMAVVKANAYG). The series is described as follows: kinetics. Particulars: enzyme-substrate complex (alanine-bound active site, external aldimine).

For the substance “Ketosteroid isomerase (3-oxo-Delta5-steroid isomerase) (not stated in the article (inferred: Comamonas testosteroni, formerly Pseudomonas testosteroni))”, in series [1], the pKa (usually the pH at which an ionisable group is half protonated) is recorded as 4.6.
Turning to “Alanine racemase (not stated in the article (inferred: Geobacillus stearothermophilus, formerly Bacillus stearothermophilus))”, the pKa in series [2] was 7.4.
